Data reported in the Human Domainome abundance scans (Beltran et al. 2025).
± gives the uncertainty stated by the source.

B1: Protein S100-G, residues 1 to 79; numbered along this chain, P02633 (parent)
chain: MSAKKSPEELKGIFEKYAAKEGDPNQLSKEELKLLLQTEFPSLLKGPSTLDELFEELDKNGDGEVSFEEFQVLVKKISQ

Variants of: B1
Test: abundance fitness (aPCA) (normalised: wild type 0, dead -1); higher = more abundant; growth selection in yeast, the domain comes from the species named
Details: Bos taurus
T38W gave an abundance fitness of -0.194 ± 0.089.
For T38A, the abundance fitness was 0.027 ± 0.078.
In the case of T38F, the abundance fitness is reported as -0.002 ± 0.08.
In the case of T38N, the abundance fitness is reported as -0.056 ± 0.085.
Work on T38I yielded an abundance fitness of -0.004 ± 0.081.
Variant T38V has an abundance fitness of 0.014 ± 0.075.
Work on T38H yielded an abundance fitness of -0.045 ± 0.091.
T38C gave an abundance fitness of -0.034 ± 0.095.
T38M showed an abundance fitness of -0.045 ± 0.075.
Work on T38R yielded an abundance fitness of -0.082 ± 0.071.
Variant T38Y has an abundance fitness of -0.074 ± 0.084.
In the case of T38D, the abundance fitness is reported as 0.096 ± 0.098.
T38G showed an abundance fitness of -0.1 ± 0.084.
T38L gave an abundance fitness of -0.073 ± 0.061.
T38Q gave an abundance fitness of 0.008 ± 0.082.
T38P gave an abundance fitness of -0.642 ± 0.077.
Variant F40E has an abundance fitness of -0.158 ± 0.094.
For F40G, the abundance fitness was -0.155 ± 0.085.
For F40D, the abundance fitness was -0.099 ± 0.091.
In the case of F40K, the abundance fitness is reported as -0.218 ± 0.084.
In the case of F40C, the abundance fitness is reported as -0.059 ± 0.082.
F40I gave an abundance fitness of 0.019 ± 0.076.
F40A showed an abundance fitness of -0.189 ± 0.079.
Work on L36A yielded an abundance fitness of -0.1 ± 0.07.
Variant L36R has an abundance fitness of -1.92 ± 0.092.
For L36W, the abundance fitness was -0.076 ± 0.087.
L36G gave an abundance fitness of -0.589 ± 0.085.
Variant L36D has an abundance fitness of -2.17 ± 0.14.
L36T gave an abundance fitness of -0.203 ± 0.065.
Variant L36K has an abundance fitness of -1.98 ± 0.11.
With L36H the abundance fitness was -1.08 ± 0.083.
L36C gave an abundance fitness of -0.099 ± 0.093.
L36V showed an abundance fitness of -0.01 ± 0.067.
L36S gave an abundance fitness of -0.499 ± 0.063.
In the case of L36E, the abundance fitness is reported as -1.37 ± 0.11.
Variant L36I has an abundance fitness of -0.013 ± 0.076.
Variant L36Q has an abundance fitness of -0.789 ± 0.09.
L36Y showed an abundance fitness of -0.209 ± 0.075.
Variant L36F has an abundance fitness of -0.008 ± 0.074.
E39Q gave an abundance fitness of -0.21 ± 0.089.
Work on E39A yielded an abundance fitness of -0.515 ± 0.07.
For E39T, the abundance fitness was -0.218 ± 0.069.
E39Y showed an abundance fitness of -0.197 ± 0.075.
Work on E39I yielded an abundance fitness of -0.24 ± 0.078.
Work on E39M yielded an abundance fitness of -0.177 ± 0.087.
With E39S the abundance fitness was -0.308 ± 0.065.
Variant E39C has an abundance fitness of -0.295 ± 0.093.
In the case of E39D, the abundance fitness is reported as -0.16 ± 0.082.
With E39F the abundance fitness was -0.345 ± 0.08.
Work on E39R yielded an abundance fitness of -0.449 ± 0.076.
With E39V the abundance fitness was -0.304 ± 0.068.
E39G gave an abundance fitness of -0.809 ± 0.083.
E39K showed an abundance fitness of -0.33 ± 0.091.
In the case of E39N, the abundance fitness is reported as -0.138 ± 0.077.
In the case of E39H, the abundance fitness is reported as -0.059 ± 0.074.
For E39W, the abundance fitness was -0.349 ± 0.1.
E39L gave an abundance fitness of -0.207 ± 0.065.
For E39P, the abundance fitness was -1.63 ± 0.097.
Variant Q37Y has an abundance fitness of -0.118 ± 0.075.
Q37H gave an abundance fitness of -0.047 ± 0.078.
Q37T gave an abundance fitness of 0.021 ± 0.067.
Q37S gave an abundance fitness of -0.142 ± 0.063.
Work on Q37W yielded an abundance fitness of -0.082 ± 0.085.
Q37K gave an abundance fitness of -0.008 ± 0.08.
In the case of Q37V, the abundance fitness is reported as -0.001 ± 0.072.
For Q37A, the abundance fitness was -0.058 ± 0.074.
With Q37L the abundance fitness was -0.08 ± 0.06.
Work on Q37C yielded an abundance fitness of -0.076 ± 0.083.
Q37F showed an abundance fitness of -0.016 ± 0.074.
With Q37M the abundance fitness was -0.104 ± 0.078.
Q37I gave an abundance fitness of -0.104 ± 0.072.
In the case of Q37R, the abundance fitness is reported as 0.005 ± 0.067.
With Q37G the abundance fitness was 0.004 ± 0.08.
With Q37P the abundance fitness was -0.185 ± 0.072.
With Q37E the abundance fitness was 0.019 ± 0.092.
Q37D showed an abundance fitness of 0.054 ± 0.088.
For E31L, the abundance fitness was -0.045 ± 0.074.
E31T gave an abundance fitness of -0.175 ± 0.086.
E31S showed an abundance fitness of 0.002 ± 0.074.
For E31G, the abundance fitness was 0.015 ± 0.084.
For E31I, the abundance fitness was 0.032 ± 0.089.
E31K gave an abundance fitness of -0.006 ± 0.1.
For E31P, the abundance fitness was -0.022 ± 0.095.
Variant E31R has an abundance fitness of -0.064 ± 0.078.
With E31V the abundance fitness was -0.033 ± 0.079.
Work on E31M yielded an abundance fitness of -0.007 ± 0.1.
E31H showed an abundance fitness of -0.016 ± 0.086.
For E31A, the abundance fitness was -0.108 ± 0.09.
Work on E31Y yielded an abundance fitness of -0.07 ± 0.091.
In the case of E31C, the abundance fitness is reported as -0.153 ± 0.097.
E31F showed an abundance fitness of -0.123 ± 0.091.
Work on E31N yielded an abundance fitness of 0.023 ± 0.092.
In the case of E31D, the abundance fitness is reported as 0.054 ± 0.11.
With E31W the abundance fitness was -0.171 ± 0.11.
Variant K33H has an abundance fitness of -0.041 ± 0.088.
Variant K33C has an abundance fitness of -0.072 ± 0.084.
For K33N, the abundance fitness was -0.016 ± 0.085.
K33R gave an abundance fitness of -0.005 ± 0.07.
With K33A the abundance fitness was 0.043 ± 0.076.
With K33F the abundance fitness was -0.022 ± 0.091.
With K33Y the abundance fitness was -0.121 ± 0.085.
In the case of K33V, the abundance fitness is reported as -0.016 ± 0.072.
Work on K33I yielded an abundance fitness of -0.051 ± 0.086.
With K33T the abundance fitness was 0.059 ± 0.074.
With K33G the abundance fitness was 0.033 ± 0.08.
For K33E, the abundance fitness was -0.032 ± 0.093.
With K33W the abundance fitness was -0.479 ± 0.083.
For E30S, the abundance fitness was 0.048 ± 0.062.
In the case of E30Q, the abundance fitness is reported as 0.04 ± 0.078.
Variant E30W has an abundance fitness of -0.074 ± 0.086.
E30K showed an abundance fitness of -0.023 ± 0.084.
E30Y showed an abundance fitness of -0.042 ± 0.083.
For E30P, the abundance fitness was 0.026 ± 0.074.
Variant E30N has an abundance fitness of 0.061 ± 0.085.
E30L showed an abundance fitness of -0.053 ± 0.062.
In the case of E30M, the abundance fitness is reported as 0.022 ± 0.08.
In the case of E30T, the abundance fitness is reported as -0.001 ± 0.068.
For E30R, the abundance fitness was 0.03 ± 0.066.
Variant E30V has an abundance fitness of 0.071 ± 0.07.
Work on L34G yielded an abundance fitness of 0.035 ± 0.08.
L34V showed an abundance fitness of -0.031 ± 0.072.
Variant L34T has an abundance fitness of 0.023 ± 0.074.
With L34R the abundance fitness was 0.05 ± 0.07.
With L34K the abundance fitness was 0.027 ± 0.085.
For L34N, the abundance fitness was 0.041 ± 0.085.
In the case of L34D, the abundance fitness is reported as 0.113 ± 0.093.
L34A gave an abundance fitness of 0.066 ± 0.075.
L34F showed an abundance fitness of -0.036 ± 0.075.
In the case of L34S, the abundance fitness is reported as -0.04 ± 0.064.
For L34I, the abundance fitness was 0.018 ± 0.09.
L34E gave an abundance fitness of 0.054 ± 0.097.
Variant L34H has an abundance fitness of 0.05 ± 0.078.
L34C gave an abundance fitness of -0.045 ± 0.08.
Work on L34Y yielded an abundance fitness of -0.015 ± 0.079.
Variant L35Q has an abundance fitness of -0.684 ± 0.091.
With L35C the abundance fitness was -0.064 ± 0.08.
In the case of L35M, the abundance fitness is reported as 0.031 ± 0.076.
With L35S the abundance fitness was -0.206 ± 0.06.
Work on L35F yielded an abundance fitness of -0.164 ± 0.069.
With L35G the abundance fitness was -0.51 ± 0.085.
For L35K, the abundance fitness was -0.829 ± 0.092.
With L35A the abundance fitness was 0.02 ± 0.08.
In the case of L35W, the abundance fitness is reported as -0.313 ± 0.084.
With L35H the abundance fitness was -0.724 ± 0.074.
L35T showed an abundance fitness of -0.174 ± 0.066.
L35P gave an abundance fitness of -2.06 ± 0.096.
In the case of L35D, the abundance fitness is reported as -1.44 ± 0.11.
Work on L35N yielded an abundance fitness of -1.04 ± 0.081.
Work on L35I yielded an abundance fitness of 0.016 ± 0.075.
L35E showed an abundance fitness of -1.11 ± 0.11.
With L32P the abundance fitness was -2.71 ± 0.14.
L32N gave an abundance fitness of -0.673 ± 0.093.
For L32W, the abundance fitness was -0.209 ± 0.081.
L32H gave an abundance fitness of -0.951 ± 0.096.
Variant L32Q has an abundance fitness of -0.616 ± 0.083.
Variant L32E has an abundance fitness of -1.72 ± 0.11.
Variant L32S has an abundance fitness of -0.138 ± 0.064.
In the case of L32F, the abundance fitness is reported as -0.048 ± 0.083.
For L32R, the abundance fitness was -0.874 ± 0.067.
Variant L32I has an abundance fitness of 0.067 ± 0.093.
L32C gave an abundance fitness of -0.097 ± 0.087.
For L32Y, the abundance fitness was -0.205 ± 0.087.
Work on L32V yielded an abundance fitness of -0.067 ± 0.067.
In the case of L32K, the abundance fitness is reported as -1.03 ± 0.098.
In the case of L32A, the abundance fitness is reported as 0.027 ± 0.073.
L32T showed an abundance fitness of -0.054 ± 0.075.
For L32D, the abundance fitness was -3.08 ± 0.22.
